Data taken from patent publication US20250312468A1, “ANTI-PROTAC ANTIBODIES AND COMPLEXES” (Merck Patent GmbH, priority 2021, published 2025).

Tests used:
HEPG2 cells = assay: CellTiter-Glo cell viability assay (VHH-based PAX); settings: cetuximab-based construct, GNE987 (1:1)
Experimental: (§1) Several cell viability experiments were performed following the procedure described below: Cells were seeded in different media into white cell culture-treated flat and clear bottom multiwell plates followed by overnight incubation in a humid chamber at 37° C. and 5% CO2. Complexation was performed as described in chapter 7.4.
(§2) The solutions were added to the cells based on the antibody concentration using nanodrop dispension using a Tecan D300e Digital Dispenser and all wells were normalized to the same volume using 0.3% TW20 in PBS pH 7.4 and DMSO to a final solvent concentration of 0.05% DMSO and 0.003% TW20. Incubation was performed at 37° C. at 5% or 10% CO2 dependent on the medium. The assay was developed after 3 days if not otherwise stated using CellTiter-Glo Luminescent Cell Viability Assay as described in the manufacturer's protocol. In brief, the plates were equilibrated to room temperature for 30 minutes. 100 mL CellTiter-Glo Buffer were added to the CellTiter-Glo Substrate Flask and mixed well. 30 μL of the reagent was transferred to each well. After incubation for 3 minutes at room temperature while shaking at 550 rpm, the plate was incubated for another 10 minutes at room temperature. The luminescence was read on an Envision reader from Perkin Elmer. Solvent alone and Bortezomib (1.0E-05 M) served as high control (100% viability) and low control (0% viability), respectively. Raw data were converted into percent cell viability relative to the high and low control, which were set to 100% and 0%, respectively. […] The concentration corresponds to the concentration of PROTACs in the PAX.

MDAMB468 cells = assay: CellTiter-Glo cell viability assay (VHH-based PAX); settings: gemtuzumab-based vs cetuximab-based construct, GNE987 (1:1)
Experimental: as §1, §2

B1: MIC7: anti-PROTAC VHH clone, SEQ ID NO: 20 (protein)
VHH: AVQLVESGGGLVQAGGSLRLSCAASGFSFDDYALGWFRQAPGKEPEGLSCISSSDGSTWYADSVKGRFTISSDNAKNTVYLQMNSLKPEDTAVYYCSAIYRLSCSVVRPTIRYALDYWGQGTQVTVSS
modifications: new world camelid
B1 was tested, and the “Selectivity Index IC50 of C on HEPG2/MDAMB468” value (HEPG2 cells) was 565.3 and the “Selectivity Index IC5O(G)/IC50(C)” value (MDAMB468 cells) was 20.9.

B2: MIC5: anti-PROTAC VHH clone, SEQ ID NO: 24 (protein)
VHH: AVQLVDSGGGLVQAGGSLRLSCAASGFTFDDYAIGWFRQAPGKEPEGILCISSSDGSAYVRDSVKGRFTMSSDNAKNTMYLQMNSLRTEDTAVYHCAVATGSCPADGGQKIFLEVWGQGTQVTVSS
modifications: new world camelid
For B2, the “Selectivity Index IC5O(G)/IC50(C)” value (MDAMB468 cells) was 98.1.
